The numbers were not newly measured in article PMC3962080, which cites them from elsewhere.

The data set addresses human serum albumin (Homo sapiens) (UniProt P02768).

One may read the Kd as a measure of binding affinity in units of concentration. Take “G148-ABD albumin-binding domain (from UniProt P06654)”: the Kd is 5 nM.
